Each block holds one substance with its values, some of them ahead of it.
Key:
[1] = biological target: p60-Tumor Necrosis Factor Receptor Associated Kinase (p60TRAK); experiment: U937 lysate depleted with p13^suc1 -agarose or GST beads, supernatant precipitated with GST-p60Δ15, kinase assay with histone H1
[2] = biological target: p60-Tumor Necrosis Factor Receptor Associated Kinase (p60TRAK)
[3] = biological target: T1, p13^suc1 -agarose (UniProt P08463); experiment: U937 lysate depleted with p13^suc1 -agarose or GST beads, supernatant precipitated with GST-p60Δ8 or GST-p60Δ15, kinase assay with Rb^110
T1 sequence: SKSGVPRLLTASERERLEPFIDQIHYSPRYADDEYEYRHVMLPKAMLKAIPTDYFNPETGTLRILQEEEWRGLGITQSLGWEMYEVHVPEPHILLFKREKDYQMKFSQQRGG

[4] = biological target: GST-p60Δ4 (Homo sapiens (Human)) (UniProt P19438)
[5] = biological target: GST-p60Δ5 (Homo sapiens (Human)) (UniProt P19438)

Substance: p13^suc1 -agarose (from UniProt P08463)
- depletion of p60TRAK activity [1]: 50%

Substance: p49^WEE1 (from UniProt P30291) (enzyme)
- histone kinase activity of p60TRAK [2]: > 70%

Substance: p60-Tumor Necrosis Factor Receptor Associated Kinase (p60TRAK)
- reduction of Rb^110 phosphorylation by p60TRAK after depletion [3]: phosphorylation of the retinoblastoma protein (Rb^110) by p60TRAK after depletion with p13^suc1 -agarose was reduced by greater than 60%

- phosphorylation in an in vitro kinase assay [4]: 50%
- phosphorylation in an in vitro kinase assay [5]: 50%
Substance: p60-Tumor Necrosis Factor Receptor Associated Kinase (p60TRAK) (enzyme)
